For one substance, stoichiometry N results are on record in paper PMC8990738.

In the experiment the target is depolymerase Dpo71 (Acinetobacter baumannii phage vB_AbaM-IME-AB2). The experiment in a line: SEC; Superose 6 Increase column on AKTA FPLC, equilibrated with PBS; gel filtration markers of 150 and 200 kDa; purified Dpo71 alone.

Turning to depolymerase Dpo71 (enzyme), the stoichiometry N stood at 3.
